Positions count from the first letter of the chain named. Names and notes keep the numbering of the source.

For data set [1], the target named is T1, Rho (transcription termination factor) (Escherichia coli, UniProt P0AG30 1-419). As to the kind of experiment: fluorescence anisotropy; 2 mM ADP-BeF3, 10 µM unlabeled dC15 blocking PBS; SBS binding / ring closure; Anisotropy: 20 mM Na-HEPES pH 7.5, 150 mM KCl, 5% glycerol, 5 mM MgCl2, 0.5 mM TCEP; 5 µM FAM-dC15 or 2 µM FAM-rU12; temperature not stated. Conditions: protein: recombinant; chain copies: 6; label: 5'-FAM; single strand. A general note: Polarisation of emitted light reports the rotation of a fluorescent probe.

The target of data set [2] is T1, Rho (transcription termination factor). As to the kind of experiment: fluorescence anisotropy; 5 mM Mg2+; no Rof; PBS binding; Anisotropy: 20 mM Na-HEPES pH 7.5, 150 mM KCl, 5% glycerol, 5 mM MgCl2, 0.5 mM TCEP; 5 µM FAM-dC15 or 2 µM FAM-rU12; temperature not stated. The note with it: protein: recombinant; chain copies: 6; label: 5'-FAM; single strand.
The target in data set [3] is Rho R88E (Escherichia coli, UniProt P0AG30 1-419, R88E). The data set is described as follows: analytical SEC; Anisotropy: 20 mM Na-HEPES pH 7.5, 150 mM KCl, 5% glycerol, 5 mM MgCl2, 0.5 mM TCEP; 5 µM FAM-dC15 or 2 µM FAM-rU12; temperature not stated. Conditions: protein: recombinant; chain copies: 6; boxB hairpin.
Data set [4] addresses Rho F89S (Escherichia coli, UniProt P0AG30 1-419, F89S). Described as above. The note with it: protein: recombinant; chain copies: 6; boxB hairpin.
For data set [5], the target named is T1, Rho (transcription termination factor). As to the kind of experiment: cryo-EM; ADP-BeF3; closed ring, 2.9 Å; Anisotropy: 20 mM Na-HEPES pH 7.5, 150 mM KCl, 5% glycerol, 5 mM MgCl2, 0.5 mM TCEP; 5 µM FAM-dC15 or 2 µM FAM-rU12; temperature not stated. The note with it: protein: recombinant; chain copies: 6; boxB hairpin.
Data set [6] addresses T2, Transcription termination factor ρ F89S (E. coli) (E. coli, UniProt P0AG30 1-419, F89S).
T2 construct: Transcription termination factor Rho, E. coli, with F89S
The data set is described as follows: SEC; analytical SEC, Superdex S200 PC 3.2 column, 5 µM ρ and 90 µM Rof/variants mixed in reaction buffer (20 mM Tris-HCl pH 8.0, 120 mM KOAc, 5 mM Mg(OAc)2, 2 mM DTT), 32 °C 10 min, run at 4 °C; fractions analysed by SDS-PAGE. Conditions: both partners purified. (In gel filtration, larger molecules generally elute earlier.)

The target in data set [7] is T3, Transcription termination factor ρ K115E (E. coli) (E. coli, UniProt P0AG30 1-419, K115E).
T3 construct: Transcription termination factor Rho, E. coli, with K115E
The description is as above. Conditions: both partners purified.

In data set [8] the target is Transcription termination factor ρ, wild type (E. coli) (E. coli, UniProt P0AG30 1-419). As to the kind of experiment: cell-based or functional assay.

For UUUUUUUUUUUU (ssRNA) [rU12], in data set [1], the binding result is “binds”.

Regarding CCCCCCCCCCCCCCC (ssDNA) [dC15], the Kd in data set [2] is 1000 nM.

B1: rut RNA (lambda tR1) (structured_RNA)
RNA: GGGAUAACCCCGCUCUUACACAUUCCAGCCCUGAAAAAGGGCAUCAAAUUAAACCACACCUAUGGUGUAUGUCAAAUUAAACCACA
In the case of B1, the binding result in data set [3] is “no binding”; in data set [4], “binds”; in data set [5] it was “binds”.

B2: Rof, wild type, tag-less (E. coli) (natural protein)
chain: MNDTYQPINCDDYDNLELACQHHLMLTLELKDGEKLQAKASDLVSRKNVEYLVVEAAGETRELRLDKITSFSHPEIGTVVVSES
notes: Rof (YaeO), E. coli; codon-optimised rof gene; the C-terminal residue is printed as S84 (84-residue form); the residue numbers used (I8 to S84) fit the 84-residue form; also called Rof^wt; ecRof; source: E. coli RIL (BL21), purified (Ni2+-NTA, TEV protease, Superdex 75)
For B2, the binding result in data set [6] and in data set [7] was “binds” each time.

B3: Rof Y13A (E. coli) (natural protein)
chain: B2 chain with Y13A
Turning to B3, the “transcripts terminated by ρ in vitro (λ tR1 template; 25 nM ρ, 5 µM Rof variant); 87% in the absence of Rof” value in data set [8] worked out at 90%.

B4: Rof D14A (E. coli) (natural protein)
chain: B2 chain with D14A
Consider B4, for which, in data set [8], the “transcripts terminated by ρ in vitro (λ tR1 template; 25 nM ρ, 5 µM Rof variant); 87% in the absence of Rof” value came to 86%.

B5: Rof E17A (E. coli) (natural protein)
chain: B2 chain with E17A
As to B5, the “transcripts terminated by ρ in vitro (λ tR1 template; 25 nM ρ, 5 µM Rof variant); 87% in the absence of Rof” value in data set [8] was determined as 25%.

What is called Kd is a measure of binding affinity in units of concentration.

The record behind these values is article PMC11018626, “Sm-like protein Rof inhibits transcription termination factor ρ by binding site obstruction and conformational insulation” (Nature Communications, 2023).
